Legend:
ADI-22523 Fab = target: T1, ADI-22523 Fab; test: BLI; tip anti-ID IgG, solution ADI-22523 Fab
T1 construct: anti-CD3 Fab by papain digestion of the IgG
Method: (§1) ForteBio affinity measurements were performed generally as previously described (Estep et al., MAbs. 2013 5(2):270-8). Briefly, ForteBio affinity measurements were performed by loading antibody IgG or Fabs on-line onto AHC sensors. Sensors were equilibrated off-line in assay buffer for 30 minutes and then monitored on-line for 60 seconds for baseline establishment. For avid binding measurement, sensors with loaded antibodies were exposed to IgG or Fab solutions for 3 minutes, afterwards they were transferred to assay buffer for 3 minutes for off-rate measurement. Kinetics data were fit using a 1:1 binding model in the data analysis software provided by ForteBio to obtain equilibrium dissociation constant (KD=koff/kₒₙ) values. In each column, tip-immobilized antibodies are listed first and solution antibodies second.

ADI-26909 = target: T2, ADI-26909; test: SPR Carterra avidity, yeast anti-ID
T2 construct: anti-CD3 antibody made in CHO cells, captured by anti-human Fc
Method: (§2) Kinetic analysis was conducted at 25° C. in an HBSTE running buffer system (Carterra Cat #3630) using a Carterra LSA (Carterra USA, Salt Lake City, UT). The sample compartment was maintained at 20° C. for the duration of each experiment.
(§3) For antibody capture experiments, a goat anti-human Fc antibody (Jackson ImmunoResearch) was covalently coupled to an HC30M sensor chip surface via standard amine coupling (1:1 EDC:NHS) and then blocked with ethanolamine (1.0 M, pH 8.5). Covalent coupling steps were performed in 25 mM MES buffer (Carterra, Cat #3625) plus 0.05% Tween20. The anti-CD3 antibodies (100 nM in running buffer) were flowed over discrete regions of interest on the chip surface for 5 minutes. […] Dissociation of the anti-idiotype antibodies was monitored for 300s. Several blank buffer samples were injected over the entire chip surface at the start of each non-regenerative kinetic cycle. The preceding blank buffer injection was used for blank surface subtraction. At the end of each non-regenerative kinetic cycle, all surfaces were regenerated via two 30s injections of 10 mM glycine, pH 1.7.
(§4) For data processing and fitting, sensorgrams were double reference subtracted with a baseline drift correction of 4 RU. Sensorgrams were y-aligned and baseline corrected, filtered and cropped to include only the association and dissociation steps. Data was fitted to a 1:1 binding model using Carterra Kinetics Data Analysis software version 1.7.1.3055.

ADI-48587 = target: T3, ADI-48587; test: SPR Carterra avidity, yeast anti-ID
T3 construct: pH-dependent anti-CD3 antibody made in CHO cells
Method: as §2, §3, §4

ADI-67450 = target: T4, ADI-67450; test: SPR Carterra avidity, yeast anti-ID
T4 construct: anti-CD3 antibody made in CHO cells, captured by anti-human Fc
T4 sequence (VH, as listed by the source limits assumed, chain 1 of 2): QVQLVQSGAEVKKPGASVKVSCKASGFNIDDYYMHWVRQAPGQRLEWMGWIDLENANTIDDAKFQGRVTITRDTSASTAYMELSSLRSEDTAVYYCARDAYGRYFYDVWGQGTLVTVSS
T4 sequence (VL, as listed by the source limits assumed, chain 2 of 2): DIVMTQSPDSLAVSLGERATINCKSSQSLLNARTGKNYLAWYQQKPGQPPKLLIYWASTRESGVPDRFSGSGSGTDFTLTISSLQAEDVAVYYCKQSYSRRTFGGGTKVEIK
Method: as §2, §3, §4

ADI-76360 = target: T5, ADI-76360; test: SPR Carterra avidity, yeast anti-ID
T5 construct: anti-CD3 antibody made in CHO cells, captured by anti-human Fc
T5 sequence (VH, as listed by the source, chain 1 of 2): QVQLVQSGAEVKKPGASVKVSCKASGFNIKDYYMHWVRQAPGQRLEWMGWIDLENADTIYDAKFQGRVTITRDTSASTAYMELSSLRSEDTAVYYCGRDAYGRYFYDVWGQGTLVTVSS
T5 sequence (VL, as listed by the source, chain 2 of 2): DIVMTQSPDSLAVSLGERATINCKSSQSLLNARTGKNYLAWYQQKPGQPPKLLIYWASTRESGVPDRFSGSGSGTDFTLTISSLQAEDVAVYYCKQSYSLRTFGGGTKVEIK
Method: as §2, §3, §4

CTL-62223 = target: T6, CTL-62223; test: SPR Carterra avidity, yeast anti-ID
T6 construct: also called mosunetuzumab
T6 sequence (VH, as listed by the source, chain 1 of 2): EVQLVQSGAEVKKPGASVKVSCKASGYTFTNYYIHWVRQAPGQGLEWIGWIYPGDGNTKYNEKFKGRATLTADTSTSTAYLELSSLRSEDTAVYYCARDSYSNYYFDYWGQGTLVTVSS
T6 sequence (VL, as listed by the source, chain 2 of 2): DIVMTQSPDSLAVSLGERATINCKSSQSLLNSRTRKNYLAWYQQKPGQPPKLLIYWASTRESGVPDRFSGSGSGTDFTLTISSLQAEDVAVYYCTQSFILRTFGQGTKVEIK
Method: as §2, §3, §4

ADI-26916 IgG = target: T7, ADI-26916 IgG; test: SPR Carterra avidity, yeast anti-ID
T7 construct: anti-CD3 IgG
T7 sequence (VH, as listed by the source, chain 1 of 2): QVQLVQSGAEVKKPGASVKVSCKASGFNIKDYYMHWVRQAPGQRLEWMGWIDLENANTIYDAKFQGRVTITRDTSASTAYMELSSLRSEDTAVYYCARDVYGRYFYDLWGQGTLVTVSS
Method: as §2, §3, §4

ADI-67445 = target: T8, ADI-67445; test: SPR Carterra avidity, yeast anti-ID
T8 construct: anti-CD3 antibody made in CHO cells, captured by anti-human Fc
T8 sequence (VH, as listed by the source limits assumed, chain 1 of 2): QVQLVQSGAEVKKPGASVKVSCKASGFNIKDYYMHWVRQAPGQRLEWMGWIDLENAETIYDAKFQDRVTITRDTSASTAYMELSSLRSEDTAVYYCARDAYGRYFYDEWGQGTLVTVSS
Method: as §2, §3, §4

ADI-70326 = target: T9, ADI-70326; test: SPR Carterra avidity, yeast anti-ID
T9 construct: anti-CD3 antibody made in CHO cells, captured by anti-human Fc
T9 sequence (VH, as listed by the source limits assumed, chain 1 of 2): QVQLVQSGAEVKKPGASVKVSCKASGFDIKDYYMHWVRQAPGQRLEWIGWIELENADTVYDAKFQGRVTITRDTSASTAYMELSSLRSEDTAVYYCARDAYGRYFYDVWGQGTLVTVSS
T9 sequence (VL, as listed by the source limits assumed, chain 2 of 2): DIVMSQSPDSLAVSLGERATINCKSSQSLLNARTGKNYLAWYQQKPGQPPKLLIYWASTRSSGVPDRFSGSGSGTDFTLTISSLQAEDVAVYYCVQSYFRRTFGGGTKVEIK
Method: as §2, §3, §4

ADI-67447 = target: T10, ADI-67447; test: SPR Carterra avidity, yeast anti-ID
T10 construct: anti-CD3 antibody made in CHO cells, captured by anti-human Fc
Method: as §2, §3, §4

ADI-70327 = target: T11, ADI-70327; test: SPR Carterra avidity, yeast anti-ID
T11 construct: anti-CD3 antibody made in CHO cells, captured by anti-human Fc
Method: as §2, §3, §4

ADI-26913 IgG = target: T12, ADI-26913 IgG; test: SPR Carterra avidity, yeast anti-ID
T12 construct: anti-CD3 IgG
T12 sequence (VH, as listed by the source limits assumed, chain 1 of 2): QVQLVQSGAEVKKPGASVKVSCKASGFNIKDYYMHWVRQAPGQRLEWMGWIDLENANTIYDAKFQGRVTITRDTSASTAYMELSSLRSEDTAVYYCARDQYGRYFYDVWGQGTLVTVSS
Method: as §2, §3, §4

ADI-76362 = target: T13, ADI-76362; test: SPR Carterra avidity, yeast anti-ID
T13 construct: anti-CD3 antibody made in CHO cells, captured by anti-human Fc
Method: as §2, §3, §4

ADI-48576 = target: T14, ADI-48576; test: SPR Carterra avidity, yeast anti-ID
T14 construct: pH-dependent anti-CD3 antibody made in CHO cells
T14 sequence (VH, as listed by the source, chain 1 of 2): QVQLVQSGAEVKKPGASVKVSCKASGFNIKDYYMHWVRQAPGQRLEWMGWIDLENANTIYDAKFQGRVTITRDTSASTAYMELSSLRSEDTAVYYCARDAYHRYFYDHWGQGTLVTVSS
T14 sequence (VL, as listed by the source, chain 2 of 2): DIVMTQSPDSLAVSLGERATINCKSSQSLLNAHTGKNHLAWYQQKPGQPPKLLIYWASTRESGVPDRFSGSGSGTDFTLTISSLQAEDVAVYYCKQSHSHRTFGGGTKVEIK
Method: as §2, §3, §4

ADI-70330 = target: T15, ADI-70330; test: SPR Carterra avidity, yeast anti-ID
T15 construct: anti-CD3 antibody made in CHO cells, captured by anti-human Fc
T15 sequence (VH, as listed by the source limits assumed, chain 1 of 2): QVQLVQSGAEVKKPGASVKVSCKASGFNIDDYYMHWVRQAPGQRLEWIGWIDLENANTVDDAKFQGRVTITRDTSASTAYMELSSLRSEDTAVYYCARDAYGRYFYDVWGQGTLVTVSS
Method: as §2, §3, §4

ADI-48592 = target: T16, ADI-48592; test: SPR Carterra avidity, yeast anti-ID
T16 construct: pH-dependent anti-CD3 antibody made in CHO cells
Method: as §2, §3, §4

ADI-26915 = target: T17, ADI-26915; test: SPR Carterra avidity, yeast anti-ID
T17 construct: anti-CD3 antibody made in CHO cells, captured by anti-human Fc
T17 sequence (VH, as listed by the source, chain 1 of 2): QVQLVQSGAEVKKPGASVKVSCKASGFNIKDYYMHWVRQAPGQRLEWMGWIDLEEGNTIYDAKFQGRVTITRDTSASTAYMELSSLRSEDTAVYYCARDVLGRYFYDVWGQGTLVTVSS
Method: as §2, §3, §4

ADI-74966 = target: T18, ADI-74966; test: SPR Carterra avidity, yeast anti-ID
T18 construct: pH-dependent anti-CD3 antibody made in CHO cells
Method: as §2, §3, §4

ADI-74965 = target: T19, ADI-74965; test: SPR Carterra avidity, yeast anti-ID
T19 construct: pH-dependent anti-CD3 antibody made in CHO cells
Method: as §2, §3, §4

ADI-48650 = target: T20, ADI-48650; test: SPR Carterra avidity, yeast anti-ID
T20 construct: pH-dependent anti-CD3 antibody made in CHO cells
T20 sequence (VH, as listed by the source, chain 1 of 2): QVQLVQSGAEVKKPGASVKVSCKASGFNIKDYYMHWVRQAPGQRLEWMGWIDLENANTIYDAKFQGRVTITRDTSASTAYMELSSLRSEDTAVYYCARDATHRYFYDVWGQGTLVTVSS
T20 sequence (VL, as listed by the source, chain 2 of 2): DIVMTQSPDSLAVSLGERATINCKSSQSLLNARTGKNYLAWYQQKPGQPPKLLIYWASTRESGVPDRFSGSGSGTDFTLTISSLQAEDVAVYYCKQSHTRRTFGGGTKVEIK
Method: as §2, §3, §4

ADI-26924 = target: T21, ADI-26924; test: SPR Carterra avidity, yeast anti-ID
T21 construct: anti-CD3 antibody made in CHO cells, captured by anti-human Fc
T21 sequence (VH, as listed by the source, chain 1 of 2): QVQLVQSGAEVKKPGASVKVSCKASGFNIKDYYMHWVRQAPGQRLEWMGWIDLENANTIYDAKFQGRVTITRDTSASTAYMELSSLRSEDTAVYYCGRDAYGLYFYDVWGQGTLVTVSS
Method: as §2, §3, §4

ADI-76358 = target: T22, ADI-76358; test: SPR Carterra avidity, yeast anti-ID
T22 construct: anti-CD3 antibody made in CHO cells, captured by anti-human Fc
Method: as §2, §3, §4

ADI-74968 = target: T23, ADI-74968; test: SPR Carterra avidity, yeast anti-ID
T23 construct: pH-dependent anti-CD3 antibody made in CHO cells
Method: as §2, §3, §4

ADI-26912 = target: T24, ADI-26912; test: SPR Carterra avidity, yeast anti-ID
T24 construct: anti-CD3 antibody made in CHO cells, captured by anti-human Fc
T24 sequence (VH, as listed by the source, chain 1 of 2): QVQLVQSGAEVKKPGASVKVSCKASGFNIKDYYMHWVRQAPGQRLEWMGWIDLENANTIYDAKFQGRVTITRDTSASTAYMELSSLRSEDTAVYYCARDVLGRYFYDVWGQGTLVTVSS
Method: as §2, §3, §4

ADI-76357 = target: T25, ADI-76357; test: SPR Carterra avidity, yeast anti-ID
T25 construct: anti-CD3 antibody made in CHO cells, captured by anti-human Fc
Method: as §2, §3, §4

ADI-74967 = target: T26, ADI-74967; test: SPR Carterra avidity, yeast anti-ID
T26 construct: pH-dependent anti-CD3 antibody made in CHO cells
Method: as §2, §3, §4

ADI-22523 IgG = target: T27, ADI-22523 IgG; test: BLI; tip anti-ID IgG, solution ADI-22523 IgG
T27 construct: anti-CD3 IgG
Method: as §1

ADI-26920 IgG = target: T28, ADI-26920 IgG; test: SPR Carterra avidity, yeast anti-ID, *koff limit
T28 construct: anti-CD3 IgG
T28 sequence (VH, as listed by the source limits assumed, chain 1 of 2): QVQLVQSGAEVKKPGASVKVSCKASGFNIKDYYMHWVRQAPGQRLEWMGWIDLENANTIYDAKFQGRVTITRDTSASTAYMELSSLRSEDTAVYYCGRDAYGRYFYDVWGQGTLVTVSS
Method: as §2, §3, §4

ADI-50024 = target: T29, ADI-50024; test: SPR Carterra avidity, yeast anti-ID, *koff limit
T29 construct: anti-CD3 antibody made in CHO cells, captured by anti-human Fc
T29 sequence (VH, as listed by the source limits assumed, chain 1 of 2): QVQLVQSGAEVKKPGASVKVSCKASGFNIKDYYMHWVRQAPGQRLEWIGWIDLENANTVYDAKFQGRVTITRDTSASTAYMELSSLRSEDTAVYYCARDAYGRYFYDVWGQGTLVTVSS
Method: as §2, §3, §4

ADI-26906 IgG = target: T30, ADI-26906 IgG; test: SPR Carterra avidity, yeast anti-ID, *koff limit
T30 construct: anti-CD3 IgG
Method: as §2, §3, §4

ADI-76359 = target: T31, ADI-76359; test: SPR Carterra avidity, yeast anti-ID, *koff limit
T31 construct: anti-CD3 antibody made in CHO cells, captured by anti-human Fc
T31 sequence (VH, as listed by the source, chain 1 of 2): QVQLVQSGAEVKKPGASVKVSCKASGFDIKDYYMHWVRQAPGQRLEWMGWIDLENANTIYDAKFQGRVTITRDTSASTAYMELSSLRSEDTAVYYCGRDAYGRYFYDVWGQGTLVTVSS
Method: as §2, §3, §4

ADI-26919 = target: T32, ADI-26919; test: SPR Carterra avidity, yeast anti-ID, *koff limit
T32 construct: anti-CD3 antibody made in CHO cells, captured by anti-human Fc
Method: as §2, §3, §4

ADI-76361 = target: T33, ADI-76361; test: SPR Carterra avidity, yeast anti-ID, *koff limit
T33 construct: anti-CD3 antibody made in CHO cells, captured by anti-human Fc
T33 sequence (VH, as listed by the source, chain 1 of 2): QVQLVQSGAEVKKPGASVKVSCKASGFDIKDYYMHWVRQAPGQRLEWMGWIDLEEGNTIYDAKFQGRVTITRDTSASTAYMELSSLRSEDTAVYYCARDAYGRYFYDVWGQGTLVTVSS
Method: as §2, §3, §4

ADI-26943 = target: T34, ADI-26943; test: SPR Carterra avidity, yeast anti-ID, *koff limit
T34 construct: anti-CD3 antibody made in CHO cells, captured by anti-human Fc
Method: as §2, §3, §4

ADI-26921 IgG = target: T35, ADI-26921 IgG; test: SPR Carterra avidity, yeast anti-ID, *koff limit
T35 construct: anti-CD3 IgG
T35 sequence (VH, as listed by the source limits assumed, chain 1 of 2): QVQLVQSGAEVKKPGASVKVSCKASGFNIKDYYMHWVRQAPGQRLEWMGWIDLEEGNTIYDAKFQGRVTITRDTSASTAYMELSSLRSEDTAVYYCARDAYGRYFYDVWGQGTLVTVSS
Method: as §2, §3, §4

Kd (ADI-22523 Fab): 7.81 nM
Kd (ADI-26909): 0.1 nM
Kd (ADI-48587): 1.8 nM
Kd (ADI-67450): 0.63 nM
Kd (ADI-76360): 0.15 nM
Kd (CTL-62223): 1.2 nM
Kd (ADI-26916 IgG): 0.14 nM
Kd (ADI-67445): 0.34 nM
Kd (ADI-70326): 4.1 nM
Kd (ADI-67447): 0.26 nM
binding result (ADI-70327): binds
Kd (ADI-26913 IgG): 0.1 nM
Kd (ADI-76362): 0.41 nM
Kd (ADI-48576): 31 nM
Kd (ADI-70330): 0.47 nM
Kd (ADI-48592): 19 nM
Kd (ADI-26915): 15 nM
Kd (ADI-74966): 0.35 nM
binding result (ADI-74965): binds
binding result (ADI-48650): binds
Kd (ADI-26924): 0.14 nM
Kd (ADI-76358): 1.1 nM
Kd (ADI-74968): 0.83 nM
binding result (ADI-26912): binds
Kd (ADI-76357): 0.097 nM
Kd (ADI-74967): 0.21 nM
Kd (ADI-22523 IgG): 0.54 nM
Kd (ADI-26920 IgG): 0.11 nM
Kd (ADI-50024): 0.17 nM
Kd (ADI-26906 IgG): 0.13 nM
Kd (ADI-76359): 0.053 nM
Kd (ADI-26919): 0.082 nM
Kd (ADI-76361): 0.044 nM
Kd (ADI-26943): 0.099 nM
Kd (ADI-26921 IgG): 0.073 nM
B1: ADI-34135 (antibody, V domains shown)
VH: QVQLVQSGAEVKKPGSSVKVSCKASGGTFSSYAISWVRQAPGQGLEWMGGIIPIFGTANYAQKFQGRVTITADESTSTAYMELSSLRSEDTAVYYCARGAPNYYGSGGYDDGWFDPWGQGTLVTVSS
VL: EIVMTQSPGTLSLSPGERATLSCRASQSVSSSYLAWYQQKPGQAPRLLIYGASSRATGIPDRFSGSGSGTDFTLTISRLEPEDFAVYYCQQFGRYPTFGGGTKVEIK
notes: anti-ID IgG

Source: patent publication US20250019439A1 (Adimab, published 2025)
